Experimental data as given in PMC10371147.

Columns and labels:
[1] = biological target: mTmc1 tagged with mRuby3 (mTmc1-mRuby3) (mouse) (UniProt Q8R4P5)
[2] = biological target: mTmc1 tagged with mRuby3 (mTmc1-mRuby3) (mouse) (UniProt Q8R4P5); assay: FRET or BRET; acceptor photobleaching in living N2A cells co-transfected with mPz1-mClover3 (donor) and mTmc1-mRuby3 (acceptor), Tyrode's solution pH 7.4, region of the surface membrane

Chain of mTmc1 tagged with mRuby3 (mTmc1-mRuby3) (mouse) (Q8R4P5 whole entry): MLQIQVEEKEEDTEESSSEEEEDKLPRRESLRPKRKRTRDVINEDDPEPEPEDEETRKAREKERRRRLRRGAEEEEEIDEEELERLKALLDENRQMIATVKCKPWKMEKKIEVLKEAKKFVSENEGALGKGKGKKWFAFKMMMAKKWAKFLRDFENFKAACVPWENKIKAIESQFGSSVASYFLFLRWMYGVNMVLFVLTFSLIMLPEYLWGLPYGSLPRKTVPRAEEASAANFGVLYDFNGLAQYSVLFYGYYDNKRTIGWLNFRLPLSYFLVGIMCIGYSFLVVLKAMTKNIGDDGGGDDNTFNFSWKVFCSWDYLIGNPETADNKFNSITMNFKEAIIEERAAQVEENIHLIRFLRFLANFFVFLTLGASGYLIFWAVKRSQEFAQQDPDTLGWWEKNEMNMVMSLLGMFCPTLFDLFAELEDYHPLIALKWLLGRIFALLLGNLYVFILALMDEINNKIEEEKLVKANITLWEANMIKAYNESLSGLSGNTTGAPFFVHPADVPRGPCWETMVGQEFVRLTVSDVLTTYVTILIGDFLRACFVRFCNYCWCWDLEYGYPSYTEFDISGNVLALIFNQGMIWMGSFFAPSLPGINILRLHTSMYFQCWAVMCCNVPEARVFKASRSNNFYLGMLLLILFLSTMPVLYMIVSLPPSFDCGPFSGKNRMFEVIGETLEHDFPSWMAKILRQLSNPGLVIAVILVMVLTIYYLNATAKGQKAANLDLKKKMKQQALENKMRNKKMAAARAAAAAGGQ

For “mouse Pz1 tagged with mClover3 (mPz1-mClover3), E2JF22 1-2547”, the block by dihydrostreptomycin (DHS) of the mechanically activated current in N2A cells co-transfected with Pz1 and Tmc1, against Pz1 alone [1] was 1000 fold and the FRET efficiency (E) [2] was 0.1.
